Like-named read-outs stand apart in the source and are kept apart here.
What was measured:
[1] = target: T1, recombinant human soluble gpNMB (recombinant human gpNMB-FLAG-His) (human, UniProt Q14956 23-498); assay: antigen ELISA
T1 sequence: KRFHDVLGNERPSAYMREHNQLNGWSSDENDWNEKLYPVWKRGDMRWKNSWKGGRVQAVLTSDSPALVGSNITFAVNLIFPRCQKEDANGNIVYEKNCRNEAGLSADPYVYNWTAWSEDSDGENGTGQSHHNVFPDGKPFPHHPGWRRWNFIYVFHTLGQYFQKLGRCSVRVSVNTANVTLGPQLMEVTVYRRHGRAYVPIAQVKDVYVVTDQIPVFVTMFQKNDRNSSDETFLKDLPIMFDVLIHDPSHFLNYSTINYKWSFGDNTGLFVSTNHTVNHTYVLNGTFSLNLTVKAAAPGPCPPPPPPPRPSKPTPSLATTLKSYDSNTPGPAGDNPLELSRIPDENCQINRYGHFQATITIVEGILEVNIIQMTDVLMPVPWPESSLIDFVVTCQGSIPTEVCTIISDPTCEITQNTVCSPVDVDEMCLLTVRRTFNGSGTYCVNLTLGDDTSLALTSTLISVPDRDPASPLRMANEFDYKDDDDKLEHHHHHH

[2] = target: T1, recombinant human soluble gpNMB …; assay: antigen ELISA, vs hGPN06-1_H1L1
[3] = target: T1, recombinant human soluble gpNMB …; assay: antigen ELISA; remark: listed apart in the source
[4] = target: T1, recombinant human soluble gpNMB …; assay: antigen ELISA, vs hGPN06-1_H1L1; remark: listed apart in the source

EC50 [1] [nM]	Relative binding activity [2]	EC50 [3] [nM]	Relative binding activity [4]	Binder
7.83	0.35			hGPN06-1_H1L1 VH N32A (antibody, V domains shown) VH: QVQLVQSGAEVKKPGASVKVSCKASGYTFTDAWMGWVKQRPGQGLEWIGAIDPSDSFTNYNQNFKGRVTMTVDTSISTAYMELSRLRSDDSAVYFCTRSGYYGSPKLGGDYWGQGTLVTVSS VL: EIVLTQSPSSLSASVGDRVTITCSASSSISYMHWYQQKSGTAPKLLIYSTSNLASGVPSRFSGSGSGTDFTFTISSLQPEDAATYYCHQWNSYPCTFGGGTKLEIK
29.4	0.04			hGPN06-1_H1L1 VH N59A (antibody, V domains shown) VH: QVQLVQSGAEVKKPGASVKVSCKASGYTFTDNWMGWVKQRPGQGLEWIGAIDPSDSFTAYNQNFKGRVTMTVDTSISTAYMELSRLRSDDSAVYFCTRSGYYGSPKLGGDYWGQGTLVTVSS VL: EIVLTQSPSSLSASVGDRVTITCSASSSISYMHWYQQKSGTAPKLLIYSTSNLASGVPSRFSGSGSGTDFTFTISSLQPEDAATYYCHQWNSYPCTFGGGTKLEIK
26.1	0.04			hGPN06-1_H1L1 VH N61A (antibody, V domains shown) VH: QVQLVQSGAEVKKPGASVKVSCKASGYTFTDNWMGWVKQRPGQGLEWIGAIDPSDSFTNYAQNFKGRVTMTVDTSISTAYMELSRLRSDDSAVYFCTRSGYYGSPKLGGDYWGQGTLVTVSS VL: EIVLTQSPSSLSASVGDRVTITCSASSSISYMHWYQQKSGTAPKLLIYSTSNLASGVPSRFSGSGSGTDFTFTISSLQPEDAATYYCHQWNSYPCTFGGGTKLEIK
0.439	1.07			hGPN06-1_H1L1 VH N63A (antibody, V domains shown) VH: QVQLVQSGAEVKKPGASVKVSCKASGYTFTDNWMGWVKQRPGQGLEWIGAIDPSDSFTNYNQAFKGRVTMTVDTSISTAYMELSRLRSDDSAVYFCTRSGYYGSPKLGGDYWGQGTLVTVSS VL: EIVLTQSPSSLSASVGDRVTITCSASSSISYMHWYQQKSGTAPKLLIYSTSNLASGVPSRFSGSGSGTDFTFTISSLQPEDAATYYCHQWNSYPCTFGGGTKLEIK
0.801	0.85			hGPN06-1_H1L1 VH P53A (antibody, V domains shown) VH: QVQLVQSGAEVKKPGASVKVSCKASGYTFTDNWMGWVKQRPGQGLEWIGAIDASDSFTNYNQNFKGRVTMTVDTSISTAYMELSRLRSDDSAVYFCTRSGYYGSPKLGGDYWGQGTLVTVSS VL: EIVLTQSPSSLSASVGDRVTITCSASSSISYMHWYQQKSGTAPKLLIYSTSNLASGVPSRFSGSGSGTDFTFTISSLQPEDAATYYCHQWNSYPCTFGGGTKLEIK
0.406	1.14			hGPN06-1_H1L1 VH Q62A (antibody, V domains shown) VH: QVQLVQSGAEVKKPGASVKVSCKASGYTFTDNWMGWVKQRPGQGLEWIGAIDPSDSFTNYNANFKGRVTMTVDTSISTAYMELSRLRSDDSAVYFCTRSGYYGSPKLGGDYWGQGTLVTVSS VL: EIVLTQSPSSLSASVGDRVTITCSASSSISYMHWYQQKSGTAPKLLIYSTSNLASGVPSRFSGSGSGTDFTFTISSLQPEDAATYYCHQWNSYPCTFGGGTKLEIK
0.652	0.92			hGPN06-1_H1L1 VH S54A (antibody, V domains shown) VH: QVQLVQSGAEVKKPGASVKVSCKASGYTFTDNWMGWVKQRPGQGLEWIGAIDPADSFTNYNQNFKGRVTMTVDTSISTAYMELSRLRSDDSAVYFCTRSGYYGSPKLGGDYWGQGTLVTVSS VL: EIVLTQSPSSLSASVGDRVTITCSASSSISYMHWYQQKSGTAPKLLIYSTSNLASGVPSRFSGSGSGTDFTFTISSLQPEDAATYYCHQWNSYPCTFGGGTKLEIK
0.429	1.14			hGPN06-1_H1L1 VH S56A (antibody, V domains shown) VH: QVQLVQSGAEVKKPGASVKVSCKASGYTFTDNWMGWVKQRPGQGLEWIGAIDPSDAFTNYNQNFKGRVTMTVDTSISTAYMELSRLRSDDSAVYFCTRSGYYGSPKLGGDYWGQGTLVTVSS VL: EIVLTQSPSSLSASVGDRVTITCSASSSISYMHWYQQKSGTAPKLLIYSTSNLASGVPSRFSGSGSGTDFTFTISSLQPEDAATYYCHQWNSYPCTFGGGTKLEIK
1.98	1.49			hGPN06-1_H1L1 VH T28A (antibody, V domains shown) VH: QVQLVQSGAEVKKPGASVKVSCKASGYAFTDNWMGWVKQRPGQGLEWIGAIDPSDSFTNYNQNFKGRVTMTVDTSISTAYMELSRLRSDDSAVYFCTRSGYYGSPKLGGDYWGQGTLVTVSS VL: EIVLTQSPSSLSASVGDRVTITCSASSSISYMHWYQQKSGTAPKLLIYSTSNLASGVPSRFSGSGSGTDFTFTISSLQPEDAATYYCHQWNSYPCTFGGGTKLEIK
2.02	1.23			hGPN06-1_H1L1 VH T30A (antibody, V domains shown) VH: QVQLVQSGAEVKKPGASVKVSCKASGYTFADNWMGWVKQRPGQGLEWIGAIDPSDSFTNYNQNFKGRVTMTVDTSISTAYMELSRLRSDDSAVYFCTRSGYYGSPKLGGDYWGQGTLVTVSS VL: EIVLTQSPSSLSASVGDRVTITCSASSSISYMHWYQQKSGTAPKLLIYSTSNLASGVPSRFSGSGSGTDFTFTISSLQPEDAATYYCHQWNSYPCTFGGGTKLEIK
28	0.04			hGPN06-1_H1L1 VH T58A (antibody, V domains shown) VH: QVQLVQSGAEVKKPGASVKVSCKASGYTFTDNWMGWVKQRPGQGLEWIGAIDPSDSFANYNQNFKGRVTMTVDTSISTAYMELSRLRSDDSAVYFCTRSGYYGSPKLGGDYWGQGTLVTVSS VL: EIVLTQSPSSLSASVGDRVTITCSASSSISYMHWYQQKSGTAPKLLIYSTSNLASGVPSRFSGSGSGTDFTFTISSLQPEDAATYYCHQWNSYPCTFGGGTKLEIK
28.1	0.06			hGPN06-1_H1L1 VH W33A (antibody, V domains shown) VH: QVQLVQSGAEVKKPGASVKVSCKASGYTFTDNAMGWVKQRPGQGLEWIGAIDPSDSFTNYNQNFKGRVTMTVDTSISTAYMELSRLRSDDSAVYFCTRSGYYGSPKLGGDYWGQGTLVTVSS VL: EIVLTQSPSSLSASVGDRVTITCSASSSISYMHWYQQKSGTAPKLLIYSTSNLASGVPSRFSGSGSGTDFTFTISSLQPEDAATYYCHQWNSYPCTFGGGTKLEIK
69.9	0.02			hGPN06-1_H1L1 VH Y27A (antibody, V domains shown) VH: QVQLVQSGAEVKKPGASVKVSCKASGATFTDNWMGWVKQRPGQGLEWIGAIDPSDSFTNYNQNFKGRVTMTVDTSISTAYMELSRLRSDDSAVYFCTRSGYYGSPKLGGDYWGQGTLVTVSS VL: EIVLTQSPSSLSASVGDRVTITCSASSSISYMHWYQQKSGTAPKLLIYSTSNLASGVPSRFSGSGSGTDFTFTISSLQPEDAATYYCHQWNSYPCTFGGGTKLEIK
128	0.04			hGPN06-1_H1L1 VH Y60A (antibody, V domains shown) VH: QVQLVQSGAEVKKPGASVKVSCKASGYTFTDNWMGWVKQRPGQGLEWIGAIDPSDSFTNANQNFKGRVTMTVDTSISTAYMELSRLRSDDSAVYFCTRSGYYGSPKLGGDYWGQGTLVTVSS VL: EIVLTQSPSSLSASVGDRVTITCSASSSISYMHWYQQKSGTAPKLLIYSTSNLASGVPSRFSGSGSGTDFTFTISSLQPEDAATYYCHQWNSYPCTFGGGTKLEIK
		3.15	0.45	hGPN06-1_H1L1 VL C95A (antibody, V domains shown) VH: QVQLVQSGAEVKKPGASVKVSCKASGYTFTDNWMGWVKQRPGQGLEWIGAIDPSDSFTNYNQNFKGRVTMTVDTSISTAYMELSRLRSDDSAVYFCTRSGYYGSPKLGGDYWGQGTLVTVSS VL: EIVLTQSPSSLSASVGDRVTITCSASSSISYMHWYQQKSGTAPKLLIYSTSNLASGVPSRFSGSGSGTDFTFTISSLQPEDAATYYCHQWNSYPATFGGGTKLEIK
		42.9	0.28	hGPN06-1_H1L1 VL H33A (antibody, V domains shown) VH: QVQLVQSGAEVKKPGASVKVSCKASGYTFTDNWMGWVKQRPGQGLEWIGAIDPSDSFTNYNQNFKGRVTMTVDTSISTAYMELSRLRSDDSAVYFCTRSGYYGSPKLGGDYWGQGTLVTVSS VL: EIVLTQSPSSLSASVGDRVTITCSASSSISYMAWYQQKSGTAPKLLIYSTSNLASGVPSRFSGSGSGTDFTFTISSLQPEDAATYYCHQWNSYPCTFGGGTKLEIK
		147	0.08	hGPN06-1_H1L1 VL H88A (antibody, V domains shown) VH: QVQLVQSGAEVKKPGASVKVSCKASGYTFTDNWMGWVKQRPGQGLEWIGAIDPSDSFTNYNQNFKGRVTMTVDTSISTAYMELSRLRSDDSAVYFCTRSGYYGSPKLGGDYWGQGTLVTVSS VL: EIVLTQSPSSLSASVGDRVTITCSASSSISYMHWYQQKSGTAPKLLIYSTSNLASGVPSRFSGSGSGTDFTFTISSLQPEDAATYYCAQWNSYPCTFGGGTKLEIK
		23	0.27	hGPN06-1_H1L1 VL I29A (antibody, V domains shown) VH: QVQLVQSGAEVKKPGASVKVSCKASGYTFTDNWMGWVKQRPGQGLEWIGAIDPSDSFTNYNQNFKGRVTMTVDTSISTAYMELSRLRSDDSAVYFCTRSGYYGSPKLGGDYWGQGTLVTVSS VL: EIVLTQSPSSLSASVGDRVTITCSASSSASYMHWYQQKSGTAPKLLIYSTSNLASGVPSRFSGSGSGTDFTFTISSLQPEDAATYYCHQWNSYPCTFGGGTKLEIK
